Where no end group is shown, it is not given here. Side-chain parts run from the residue outwards. [ ]: non-standard residue; d: D form. The star is where a group is joined. X1 = 5‑aminoethylsulfonamide isoquinoline, O=S(=O)(NCCN*)c1cccc2cnccc12; hLeu = CC(C)CC[C@H](N)C(=O)O; Nle = CCCC[C@H](N)C(=O)O; Orn = NCCC[C@H](N)C(=O)O; Dab = NCC[C@H](N)C(=O)O; Nva = CCC[C@H](N)C(=O)O; Abu = CC[C@H](N)C(=O)O; Dap = NC[C@H](N)C(=O)O; βAla = NCCC(=O)O

The values below come from patent publication US7407939B2, “Protein kinase inhibitors comprising ATP mimetics conjugated to peptides or peptidomimetics” (CureGenics Ltd., priority 2001, dated 2008).

This assay has as its target T1, PKB (Homo sapiens, UniProt P31749).
T1 construct: His; HA; made in house
Description: PKB in vitro kinase activity assay (soluble His-HA-PKB / SPA bead screening). The class given is biochemical. The conditions noted are these: 1 μM compound concentration.

T1 sequence (P31749 whole entry, species assumed): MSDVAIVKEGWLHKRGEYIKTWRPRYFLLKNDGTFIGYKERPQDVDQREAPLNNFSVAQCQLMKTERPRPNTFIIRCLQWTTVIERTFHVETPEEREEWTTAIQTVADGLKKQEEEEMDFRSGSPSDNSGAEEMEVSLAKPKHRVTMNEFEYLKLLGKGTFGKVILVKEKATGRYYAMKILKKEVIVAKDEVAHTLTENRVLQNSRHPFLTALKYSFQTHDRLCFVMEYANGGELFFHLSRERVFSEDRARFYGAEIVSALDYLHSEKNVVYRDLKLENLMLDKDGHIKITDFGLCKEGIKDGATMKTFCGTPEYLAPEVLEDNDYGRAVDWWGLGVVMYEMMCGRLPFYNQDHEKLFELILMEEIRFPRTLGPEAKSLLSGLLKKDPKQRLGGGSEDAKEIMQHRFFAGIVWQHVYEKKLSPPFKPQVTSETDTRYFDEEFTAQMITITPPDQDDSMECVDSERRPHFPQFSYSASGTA

With “60020-61: Arg-Pro-Arg-Nle-Glu(Gly-5-aminoethylsulfonamide isoquinoline)-Ala-Phe (RPR[Nle]E([Gly-X1])AF)”, the “PKB-kinase (spa) Assay 1, % inhibition of kinase activity” value (“PKB-kinase (spa) Assay 1, % inhibition” for short) was 29% and the “PKB-kinase (spa) Assay 2, % inhibition of kinase activity” value (“PKB-kinase (spa) Assay 2, % inhibition” for short) came to 40%.

On to “60020-62: Arg-Pro-Arg-Nle-Glu(Gly-5-aminoethylsulfonamide isoquinoline)-Ala-Hol (RPR[Nle]E([Gly-X1])A[hLeu])”, for which the “PKB-kinase (spa) Assay 1, % inhibition” value stood at 29% and the “PKB-kinase (spa) Assay 2, % inhibition” value came out at 38%.

Turning to “60020-63: Arg-Pro-Arg-Nle-Glu(Gly-5-aminoethylsulfonamide isoquinoline)-Nva-Phe (RPR[Nle]E([Gly-X1])[Nva]F)”, the “PKB-kinase (spa) Assay 1, % inhibition” value amounted to 17% and the “PKB-kinase (spa) Assay 2, % inhibition” value stood at 19%.

For the substance “60020-64: Arg-Pro-Arg-Nle-Glu(Gly-5-aminoethylsulfonamide isoquinoline)-Nva-Hol (RPR[Nle]E([Gly-X1])[Nva][hLeu])”, the “PKB-kinase (spa) Assay 1, % inhibition” value is 25% and the “PKB-kinase (spa) Assay 2, % inhibition” value came to 26%.

Turning to “60020-65: Arg-Pro-Arg-Dap-Glu(bAla-5-aminoethylsulfonamide isoquinoline)-Dab-Phe (RPR[Dap]E([βAla-X1])[Dab]F)”, the “PKB-kinase (spa) Assay 1, % inhibition” value was 32% and the “PKB-kinase (spa) Assay 2, % inhibition” value worked out at 30%.

Regarding “60020-66: Arg-Pro-Arg-Dap-Glu(bAla-5-aminoethylsulfonamide isoquinoline)-Dab-Hol (RPR[Dap]E([βAla-X1])[Dab][hLeu])”, the “PKB-kinase (spa) Assay 1, % inhibition” value is listed as 52% and the “PKB-kinase (spa) Assay 2, % inhibition” value was 63%.

Take “60020-69: Arg-Pro-Arg-Dap-Glu(bAla-5-aminoethylsulfonamide isoquinoline)-Ala-Phe (RPR[Dap]E([βAla-X1])AF)”: the “PKB-kinase (spa) Assay 1, % inhibition” value was found to be 36% and the “PKB-kinase (spa) Assay 2, % inhibition” value amounted to 57%.

Take “60020-70: Arg-Pro-Arg-Dap-Glu(bAla-5-aminoethylsulfonamide isoquinoline)-Ala-Hol (RPR[Dap]E([βAla-X1])A[hLeu])”: the “PKB-kinase (spa) Assay 1, % inhibition” value was 57% and the “PKB-kinase (spa) Assay 2, % inhibition” value was 68%.

Regarding “60020-71: Arg-Pro-Arg-Dap-Glu(bAla-5-aminoethylsulfonamide isoquinoline)-Nva-Phe (RPR[Dap]E([βAla-X1])[Nva]F)”, the “PKB-kinase (spa) Assay 1, % inhibition” value is given as 32% and the “PKB-kinase (spa) Assay 2, % inhibition” value was determined as 46%.

Consider “60020-72: Arg-Pro-Arg-Dap-Glu(bAla-5-aminoethylsulfonamide isoquinoline)-Nva-Hol (RPR[Dap]E([βAla-X1])[Nva][hLeu])”, for which the “PKB-kinase (spa) Assay 1, % inhibition” value was 31% and the “PKB-kinase (spa) Assay 2, % inhibition” value is 52%.

Turning to “60020-73: Arg-Pro-Arg-Orn-Glu(bAla-5-aminoethylsulfonamide isoquinoline)-Dab-Phe (RPR[Orn]E([βAla-X1])[Dab]F)”, the “PKB-kinase (spa) Assay 1, % inhibition” value is given as 16% and the “PKB-kinase (spa) Assay 2, % inhibition” value is listed as 35%.

In the case of “60020-74: Arg-Pro-Arg-Orn-Glu(bAla-5-aminoethylsulfonamide isoquinoline)-Dab-Hol (RPR[Orn]E([βAla-X1])[Dab][hLeu])”, the “PKB-kinase (spa) Assay 1, % inhibition” value was 33% and the “PKB-kinase (spa) Assay 2, % inhibition” value was determined as 41%.

As to “60020-75: Arg-Pro-Arg-Orn-Glu(bAla-5-aminoethylsulfonamide isoquinoline)-Orn-Phe (RPR[Orn]E([βAla-X1])[Orn]F)”, the “PKB-kinase (spa) Assay 1, % inhibition” value worked out at 23% and the “PKB-kinase (spa) Assay 2, % inhibition” value amounted to 35%.

For the substance “60020-76: Arg-Pro-Arg-Orn-Glu(bAla-5-aminoethylsulfonamide isoquinoline)-Orn-Hol (RPR[Orn]E([βAla-X1])[Orn][hLeu])”, the “PKB-kinase (spa) Assay 1, % inhibition” value was determined as 38% and the “PKB-kinase (spa) Assay 2, % inhibition” value amounted to 38%.

Consider “60020-77: Arg-Pro-Arg-Orn-Glu(bAla-5-aminoethylsulfonamide isoquinoline)-Ala-Phe (RPR[Orn]E([βAla-X1])AF)”, for which the “PKB-kinase (spa) Assay 1, % inhibition” value stood at 13% and the “PKB-kinase (spa) Assay 2, % inhibition” value is reported as 15%.

Take “60020-78: Arg-Pro-Arg-Orn-Glu(bAla-5-aminoethylsulfonamide isoquinoline)-Ala-Hol (RPR[Orn]E([βAla-X1])A[hLeu])”: the “PKB-kinase (spa) Assay 1, % inhibition” value came to 21% and the “PKB-kinase (spa) Assay 2, % inhibition” value was determined as 24%.

On to “60020-80: Arg-Pro-Arg-Orn-Glu(bAla-5-aminoethylsulfonamide isoquinoline)-Nva-Hol (RPR[Orn]E([βAla-X1])[Nva][hLeu])”, for which the “PKB-kinase (spa) Assay 1, % inhibition” value worked out at 13% and the “PKB-kinase (spa) Assay 2, % inhibition” value stood at 35%.

On to “60020-81: Arg-Pro-Arg-Abu-Glu(bAla-5-aminoethylsulfonamide isoquinoline)-Dab-Phe (RPR[Abu]E([βAla-X1])[Dab]F)”, for which the “PKB-kinase (spa) Assay 1, % inhibition” value is reported as −17% and the “PKB-kinase (spa) Assay 2, % inhibition” value turned out to be 42%.

As to “60020-82: Arg-Pro-Arg-Abu-Glu(bAla-5-aminoethylsulfonamide isoquinoline)-Dab-Hol (RPR[Abu]E([βAla-X1])[Dab][hLeu])”, the “PKB-kinase (spa) Assay 1, % inhibition” value is on record as −9% and the “PKB-kinase (spa) Assay 2, % inhibition” value is given as 56%.

For the substance “60020-83: Arg-Pro-Arg-Abu-Glu(bAla-5-aminoethylsulfonamide isoquinoline)-Orn-Phe (RPR[Abu]E([βAla-X1])[Orn]F)”, the “PKB-kinase (spa) Assay 1, % inhibition” value is recorded as −21% and the “PKB-kinase (spa) Assay 2, % inhibition” value is on record as 60%.

Take “60020-84: Arg-Pro-Arg-Abu-Glu(bAla-5-aminoethylsulfonamide isoquinoline)-Orn-Hol (RPR[Abu]E([βAla-X1])[Orn][hLeu])”: the “PKB-kinase (spa) Assay 1, % inhibition” value is 10% and the “PKB-kinase (spa) Assay 2, % inhibition” value worked out at 51%.

As to “60020-85: Arg-Pro-Arg-Abu-Glu(bAla-5-aminoethylsulfonamide isoquinoline)-Ala-Phe (RPR[Abu]E([βAla-X1])AF)”, the “PKB-kinase (spa) Assay 1, % inhibition” value is recorded as −27% and the “PKB-kinase (spa) Assay 2, % inhibition” value is −2%.

For the substance “60020-86: Arg-Pro-Arg-Abu-Glu(bAla-5-aminoethylsulfonamide isoquinoline)-Ala-Hol (RPR[Abu]E([βAla-X1])A[hLeu])”, the “PKB-kinase (spa) Assay 1, % inhibition” value is given as −55% and the “PKB-kinase (spa) Assay 2, % inhibition” value is given as −5%.

In the case of “60020-87: Arg-Pro-Arg-Abu-Glu(bAla-5-aminoethylsulfonamide isoquinoline)-Nva-Phe (RPR[Abu]E([βAla-X1])[Nva]F)”, the “PKB-kinase (spa) Assay 1, % inhibition” value is reported as −50% and the “PKB-kinase (spa) Assay 2, % inhibition” value is given as 5%.

For the substance “60020-88: Arg-Pro-Arg-Abu-Glu(bAla-5-aminoethylsulfonamide isoquinoline)-Nva-Hol (RPR[Abu]E([βAla-X1])[Nva][hLeu])”, the “PKB-kinase (spa) Assay 1, % inhibition” value is −50% and the “PKB-kinase (spa) Assay 2, % inhibition” value was 31%.
